From patent US20150148403A1 (ACADEMIA SINICA, published 2015) come the findings set out here.

For one data set, the target named is T1, Flag-tagged USP37 (human, UniProt Q86T82 1-979).
T1 construct: Expressed in transfected HEK-293T cells and tested in lysate by co-immunoprecipitation; also called Flag-USP37; USP37 WT; not shown: 3xFLAG tag from the pCMV-3xFLAG vector
T1 sequence: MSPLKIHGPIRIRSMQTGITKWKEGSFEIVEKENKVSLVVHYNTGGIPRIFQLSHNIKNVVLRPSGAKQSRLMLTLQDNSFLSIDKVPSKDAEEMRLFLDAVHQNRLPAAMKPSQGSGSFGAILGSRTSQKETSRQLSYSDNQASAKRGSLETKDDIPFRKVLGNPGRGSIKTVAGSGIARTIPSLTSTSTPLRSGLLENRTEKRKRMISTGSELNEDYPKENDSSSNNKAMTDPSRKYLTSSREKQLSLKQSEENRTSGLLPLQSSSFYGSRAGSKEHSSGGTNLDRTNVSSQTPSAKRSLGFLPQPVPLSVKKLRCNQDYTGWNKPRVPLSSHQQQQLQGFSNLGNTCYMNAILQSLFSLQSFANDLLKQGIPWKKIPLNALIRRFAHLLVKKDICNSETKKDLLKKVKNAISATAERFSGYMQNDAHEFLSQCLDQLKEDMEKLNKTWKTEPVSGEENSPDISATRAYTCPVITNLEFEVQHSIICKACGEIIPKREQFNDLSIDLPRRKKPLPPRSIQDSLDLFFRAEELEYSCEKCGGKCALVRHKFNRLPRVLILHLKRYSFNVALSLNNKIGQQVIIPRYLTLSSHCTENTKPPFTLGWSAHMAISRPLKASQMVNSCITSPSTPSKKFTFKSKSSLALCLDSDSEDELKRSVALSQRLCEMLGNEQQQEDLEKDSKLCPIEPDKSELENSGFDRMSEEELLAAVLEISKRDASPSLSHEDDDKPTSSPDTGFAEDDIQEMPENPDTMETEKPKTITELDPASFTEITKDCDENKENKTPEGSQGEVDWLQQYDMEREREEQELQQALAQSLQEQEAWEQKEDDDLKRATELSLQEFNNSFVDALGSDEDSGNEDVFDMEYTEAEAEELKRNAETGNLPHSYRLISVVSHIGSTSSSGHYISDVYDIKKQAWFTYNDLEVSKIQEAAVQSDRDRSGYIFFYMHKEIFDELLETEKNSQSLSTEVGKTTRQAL
Put plainly: co-immunoprecipitation from transfected HEK-293T cells.

In data set [1] the target is poly-ubiquitinated PLZF/RARA immunoprecipitated from HEK-293T cells expressing Flag-tagged PLZF/RARA and Myc-tagged Ub.

Numbering of substitutions follows the chain as printed. Names and notes keep the numbering of the source.

B1: HA-tagged RARA (receptor, UniProt P10276 1-462, looked up)
chain: MASNSSSCPTPGGGHLNGYPVPPYAFFFPPMLGGLSPPGALTTLQHQLPVSGYSTPSPATIETQSSSSEEIVPSPPSPPPLPRIYKPCFVCQDKSSGYHYGVSACEGCKGFFRRSIQKNMVYTCHRDKNCIINKVTRNRCQYCRLQKCFEVGMSKESVRNDRNKKKKEVPKPECSESYTLTPEVGELIEKVRKAHQETFPALCQLGKYTTNNSSEQRVSLDIDLWDKFSELSTKCIIKTVEFAKQLPGFTTLTIADQITLLKAACLDILILRICTRYTPEQDTMTFSDGLTLNRTQMHNAGFGPLTDLVFAFANQLLPLEMDDAETGLLSAICLICGDRQDLEQPDRVDMLQEPLLEALKVYVRKRRPSRPHMFPKMLMKITDLRSISAKGAERVITLKMEIPGSMPPLIQEMLENSEGLDTLSGQPGGGGRDGGGLAPPPGSCSPSLSPSSNRSSPATHSP
notes: Expressed in transfected HEK-293T cells; not shown: HA tag
Regarding B1, the binding result in the data set with Flag-tagged USP37 is listed as “no binding”.

B2: MBP-fused USP37 recombinant protein (protein)
chain: T1 sequence
On to B2, for which the “in vitro deubiquitination of poly-ubiquitinated PLZF/RARA (immunoblot)” value in data set [1] was “the recombinant USP37 WT but not CA mutant could deubiquitinate PLZF/RARA in vitro”.

B3: recombinant USP37 CA mutant (USP37 C350A) (protein)
chain: T1 sequence with C350A
For B3, in data set [1], the “in vitro deubiquitination of poly-ubiquitinated PLZF/RARA (immunoblot)” value is reported as “the recombinant USP37 WT but not CA mutant could deubiquitinate PLZF/RARA in vitro”.
